assay: yeast display, Sf9 membrane polyspecificity reagent, FACS + sequencing; frameworks hold sequencing errors
Outline: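 Synthetic nanobody libraries on Saccharomyces cerevisiae BJ5465 were galactose-induced for 36–48 hours, stained 1 hour at 4 °C with 10% biotinylated, detergent-solubilized Sf9 membrane reagent and enriched on streptavidin microbeads. FACS then separated cells into low and high (top ~1%) gates by anti-HA (expression) and streptavidin (reagent binding) fluorescence. Genes were colony-PCR amplified, MiSeq 2 × 250 sequenced and CDR-length filtered. A clone's polyreactivity label is that of its gate of origin.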

Sequence	polyreactivity (PSR sort gate)
QVQLRESGGGLVQAGGSLSLSCAASGTIFYSRYMGWYRQAPGKEREFVASISSGGNTNYADSVKGRFTISRDNAKNTVYLQMNSLKPEDTAVYYCAVNTGLITTCPYWGQGTQVTVSS	high polyreactivity
QVQLVAGGGLVQAGGSLRLSCAASGSIFYSNAMGWYRQAPGKERELVAAISFSGGSTYYADSVKGRFTISRDNAKNTVYLQMNSLKPEDTAVYYCAAEFYKRKFGPFEYWGQGTQVTVSS	low polyreactivity
QVQLVASGGALVQAGGSLRLSCAASGFIFDYYAMGRYRPAPGKERELVAAITSRSGSTYYADSVKGRFTISRDNAKNTVYLQMNSLKPEDTAVYYCARRFKYGSTAWRFYYWGQGTQVTVSS	high polyreactivity
QVQLVASGGGLVQAGGSLRISSAASGGIFPQYAMGWYRQAPGKERELVAAISRRGGSTYYADSVKGRFTISRDNAKNTVYLQMNSLKPEDTAVYFCNAGGSDYGVSNKYNSWGQGTQVTVSS	high polyreactivity
QVQLVASGGGLVQAGGSLRLSCAASGRTSWYYAMGWYRHAPGKERELVAAITASGGSTYADSVKGRFTISRDNAKNTVYLQMNSLKPEDTAVYYCAAERPYSRVGYYYWGQGTQVTVSS	high polyreactivity
QVQLVASGGGLVQAGGSLRLSCAATGNTLGYYDMGWYRQAPGKERELVAGITFRGGRTYYADSVKGRFTISRDNPKNTVYLQMKSLKPEDTAVYYCAKRTRYSPGHDYWGLGTQVTVSS	high polyreactivity
QVQLVASGGGLVQAGGSLRLSSAASGFTFYGYAMGWYSQARGKERELVATIRRSTGSTYYADSVKGRFTISRDNAKNTVYLQINSLIPEDTAVYYCATRVWFPITSYDYWGQGTQVTVSS	low polyreactivity
QVQLVASGGGLVQAGGSVRLSCAASGFIVNYYAMGWYRQAPGKEGELLAAISSGGSTYYADSVKGRFTISRDNAKNTVYLQMNSLKPEDTAVYYCAARYTDLRLARYYYDYYYWGQGTQVTVSS	high polyreactivity
QVQLVASGGGLVQARGSLRLSCAASGRTFTYYAMGWYRQAPGKESELVAAISDSGGSTYYADSVKGRFTISRDNAKNTVYVQMNSLKPEDTAVYYCAAYRYVGPWTDVGSPDYDDWGQGTQVTVSS	low polyreactivity
QVQLVASGGGLVQSGGSLRLSCAASGSTITWYAMGWYRQAPGKDRELVARISSGDRPNYADSVKGRFTISRDNAKNTVYLQMNSLKPEDTAVYYCNADYGQPSYYDDGDYWGQGTQVTVSS	low polyreactivity
QVQLVDSAGGLVHAGGSLRLSCAASGLTFYSNTMGWYRPPPGKERELVAGISWGGDTTYYADSVKGRFTISRDNAKNTVYLQMNSLKPEDTAVYYCAADRSYWRHRYSYDYWGQGTQVTVSS	low polyreactivity
QVQLVDSAGGLVQAGGSLRLSCAASGITFGYYAMGWYRQAPGKERELVAAITSSGSTYYADSVKGRFTISRDNAKNTVYLQMNSLNPEDTAVYYCAARSWYSKYYYWGQGTQVTVSS	high polyreactivity
QVQLVDSAGGLVQAGGSLRLSCAASGLNYAIYAMGWYREAPGKERELVAAIRWSGASTYADSVKGRFTISRDNAKNTVYLQMNSLKPEDTAVYYCAADDLLDYDYWGQGTQVTVSS	low polyreactivity
QVQLVDSAGGLVQAGGSLRLSCAASGRTYVVNTRGWSRQAPGKERELVASISSGTTNYADSVKGRFTISRDNAKNTVYLQMNSLKPVDTAVYYCNTDGGDHPTARYGYWGQGTQVTVSS	high polyreactivity
QVQLVDSGAGLVQAGGSLRIICAASVRTFPRNAMGWYRQAPGKEMEMVAAITGSGGSTYYADSVKGRFTISRDNAKNTVYLQMNSLKPEDTAVYYCAARGPSRRRDGSDYWGQGTQVTVSS	high polyreactivity
QVQLVDSGAGLVQAGGSLSLTCAASGYTFYANAMGWYRQAPGKERELVAGINRSGSTYYADSVKGRFTISRDNAKNTVYLQMNSLKPEDTAVYYCATAWHRGVRGRTSGAFDYWGQGTQVTVSS	high polyreactivity
QVQLVDSGGCLVQAGRSLRLSCAASGSIYVPNAMGWYRQAPRKERDLVAGISRGGSTNYADSVKGRFTISRDNAKNSVYLQMKRLKPEDTAVYYCARDSRTIRYYAWFYPFRYDYWGQGTQVTVSS	low polyreactivity
QVQLVDSGGGIVQAGGSLRLSCAASGRIFKLYAMGRYRQAPGKERELVAAISKSGGNTYADSVKGRFTISRDNAKNSVYLQMNSLKPEDTAVYYCAATVQSTSDPFDYWGQGTQVTVSS	low polyreactivity
QVQLVDSGGGLDQAGGSLRLSCSASGIIFRGNAMGWYRQAPGKEREFVAAIALRGSRSYYADSVKGRFTISRDNAKNTVYLQMISLKPEDTAVYYCAARYYSEPNAYYYWGQGTQLTVSS	high polyreactivity
QVQLVDSGGGLVHAGGSLRLSCAASGSIFGANTMGWYRPAPGKERELVAGITSRARTYYADSVKGRFTISRDNANNNVYLQMNSLKPEDTAVYYCAAKYAWRRYGYWGQGTQVTVSS	high polyreactivity
QVQLVDSGGGLVHAGGSLRLSCAASGSSFTFYAMGWYRQAPGKERELVARISITGGSTYYADSVKGRFTISRDNAKNTVYLHMNSLKPEDTAVYYCAARYYGEHYDYWGQGTQVTVSS	low polyreactivity

Sequence	polyreactivity (PSR sort gate)
QVQLVDSGGGLVHAGGSLRLSCASSGSIFNYYAMGCYRQPPGKVRELVAAISYRTGSTYYADSVKGRFTISRDNAKNTVYLQMTSLKPEDTSVYYCAADTRYGYGYWGQGTQVTVSS	high polyreactivity
QVQLVDSGGGLVHAGGSLRLSCHASGRTFRGNAMGWYRQAPGKESELVAAITRRTASTYYADSVKGRFTISRDNAKNTVYLQMNSLKPEDTAVYDCAADSYMKRPYYAGYYYWGQGTQVTVSS	high polyreactivity
QVQLVDSGGGLVKAGCSLRLSCAASGRIFNSYAMGLYRQAPGKETELVAAITWSGDRTNYADSVKGRFTISRDNANNTVYVQMNSLKPEDTAVYYCAADRVRSVRYGYWGKGTQVTVSS	low polyreactivity
QVQLVDSGGGLVKAGGSLRLSCAASGSTFAYYAMGWYRQAPGKERELVAAISWNGGSTYYADSVKGRFTISRDNAKNTVYLQMNSLKPEDTAVYYCAAEVYDYTYVVTFLYDYWGQGTQVTVSS	high polyreactivity
QVQLVDSGGGLVQAGCSLRISCAASGSIYTTYAMGWYRQAPGKERELVAALTRSGGRTYYADSVKGRFTISRDNAKYTVYLQMTSLKPEDTAVDDCNAYGYRTWWDDFKLDYWGQGTQVTVSS	high polyreactivity
QVQLVDSGGGLVQAGGRLRLTCAASGSTFGPNAMGWYSPAPGKERELVADISGGSTNYADSVKGRFTISRDNAKNTVYLQMKSLKPEDTAVYSCATDDHVEPVRRLYGYWGQGTQVTVSS	low polyreactivity
QVQLVDSGGGLVQAGGSHRLSCAASGIIFPTYDMGWYRPAPGKERELVAAITWSTGSTTYADSVKGRFTISRDNAKNTVYLQMNSLKPEDTAVYYCNKDSEGSGGEFDDWGQGTQVTVSS	low polyreactivity
QVQLVDSGGGLVQAGGSLGLSCAASGRSFTFNAMGWYRQAPGKERELVAAISSRGDGTYYADSVKGRFTISRDNAKNNVYLQMNSLKPEDTAVYYCARYPDDYYDWGYDYWGQGTQVTVSS	low polyreactivity
QVQLVDSGGGLVQAGGSLRFSCAASGSIFPVNVMGWYRQAPGKERELVADITSTGTYYADSVKGRFTISRDNAKNTDYLQMNSLKPEDTAVYYCAKAGGSWYRRYYYWGQGTQVTVSS	high polyreactivity
QVQLVDSGGGLVQAGGSLRISCAASGFIFSSYAMGWSRQAPAKERELVAAISSRGGSTYYADSVKGRFTISRDNAKNTVYLQMNSLKPEDTAVYYCNAYLSPYVQTSRYDDDYWGQGTQVTVSS	high polyreactivity
QVQLVDSGGGLVQAGGSLRISCAASGSIFPSNAMGWYRQAPGKERELVAAINRDGITNYADSVKGRFTISRDNAKNTVYLQMNSLKPEDTAVYYCAAEFAGQWWEYGYWGQGTQVTESS	low polyreactivity
QVQLVDSGGGLVQAGGSLRITCAASGFTFTRYALGGYRQAPGKERELVAVITSTAGSTYYADSVKGRFTISRDNAKNSVYLQMNSLKAEVTAVYFCAAESLVHGDVTLEEVVAQSYDYWGQGSQVTVSS	low polyreactivity
QVQLVDSGGGLVQAGGSLRLICAASGRNLYAYSMGWYRQAPWQQRELVGAITSGASTYYADSVKGRFTISRDNAKTNVYLQMKRLKPEDTAVYYCAKSVRYYKPGYDYWGQGTQVTVSS	low polyreactivity
QVQLVDSGGGLVQAGGSLRLNFAASGLTFDRYGMGWYRQGPGKERELVAAIDGSGTSTYYADSVKGRFTISRDNAKNTVYLQMNSLKPEDTAVYYCAAGALSWYDYWGQGTQVTVSS	low polyreactivity
QVQLVDSGGGLVQAGGSLRLRCAASGLTFYTYAMGWYRQAPGKERELVAANRWRGGRTYYADSVKGRFTISRDNAKNTVYLQMNSLKPDDTAVYYCAADYSTLYKYDYWGQGTQVTVSS	low polyreactivity
QVQLVDSGGGLVQAGGSLRLSCAASGFIFDLYAMGWYRQAPGKERELVAAITTSGGTTYYADSVKGRFTISRDNAKNTVYLQMNSLIPEDTAVYFCAARRYSWYYYWGQGTQVTVSS	high polyreactivity
QVQLVDSGGGLVQAGGSLRLSCAASGFIFGINAMGWYRQAPGKERELVSAISTGDRTNYADSVKRRFTISRDNAKNTVYLQMYSLKPEDTAVYYFAKDWRRNRPYEWTYDYWGQGTQVTVSS	low polyreactivity
QVQLVDSGGGLVQAGGSLRLSCAASGFIFQYYAMGWYRQAPGKEMGLVAAISFSGGSTYYADSVKGRFTISRDNAKNTVYLQMNSLKPEDTAVYYCAAEVYSVGDYSGHDYYWGQGTQVTVSS	low polyreactivity
QVQLVDSGGGLVQAGGSLRLSCAASGFTFFRYAMGWYRQAPGKERELVAAITSGGGRTYYADSVKGRFTISRDNAKNTVYLQMNSLNPEDTAVYYCAARVYFSFITPIKYNYWGQGTQVTVSS	high polyreactivity
QVQLVDSGGGLVQAGGSLRLSCAASGFTFNGYAMGWSRPAPGKEREFVAAISSSGGSTYYADSVKGRFTISRDNAKNTVYLQMNSLKPDDTAVYYCNAVGWRKKYDYWGQGTQVTVSS	high polyreactivity

Source: the nanobody polyreactivity screen of Harvey et al. (2022)
